# Measured values: patent US20110091971A1, “Differentiation of Pluripotent Stem Cells” (priority 2008, published 2011)
# Positions count from the first letter of the chain named.
# B1: ACTN75: activin A variant peptide, SEQ ID 76 (protein)
# chain: GLECDGKVNICCKKQSFGQAKDIGWNDWIIAPSGYHGGGCSGECPSHIAGTSGSSLSFHSTVINHYRMRGHSPWANLKSCCSPTKLRPMSMLYYDDGQNIIKKDIQRMKVEECGCT
# B2: ACTN76: activin A variant peptide, SEQ ID 77 (protein)
# chain: B1 chain with S16L, A20T, W74N, R107G
# B3: ACTN84: activin A variant peptide, SEQ ID 85 (protein)
# chain: B1 chain with W74F, R107N, K109V
# B4: ACTN87: activin A variant peptide, SEQ ID 88 (protein)
# chain: B1 chain with G39S, W74F, R107N, K109V
# B5: ACTN90: activin A variant peptide, SEQ ID 91 (protein)
# chain: B1 chain with A20T, G39S, W74F, R107N
# B6: ACTN89: activin A variant peptide, SEQ ID 90 (protein)
# chain: B1 chain with S16L, A20T, W74N, R107N
# B7: ACTN79: activin A variant peptide, SEQ ID 80 (protein)
# chain: B1 chain with S41T, K109V
# B8: ACTN24: activin A variant peptide, SEQ ID 25 (protein)
# chain: GLECDGKVNLCCKKQDFVSFKDIGWNDWIIAPSGYHANRCSGRCPSHIAGTSGSSLSFHSTVINHYRMRGHSPFSDMGSCCVPTKLRPMSMLYYDDGQNIIKKDIQNMIVEECGCS
# B9: ACTN30: activin A variant peptide, SEQ ID 31 (protein)
# chain: B8 chain with L10Y, D16N, R39K, R43L, D76K, S79A
# B10: ACTN29: activin A variant peptide, SEQ ID 30 (protein)
# chain: B8 chain with D16L, R39H, R43K, V82I
# B11: ACTN26: activin A variant peptide, SEQ ID 27 (protein)
# chain: B8 chain with D16H, S41D, R43K, S75A, D76N, S79A, V82I
# B12: ACTN33: activin A variant peptide, SEQ ID 34 (protein)
# chain: B8 chain with D16N, R39E, S41M, R43K, S79A, V82I
# B13: ACTN25: activin A variant peptide, SEQ ID 26 (protein)
# chain: B8 chain with D16N, R39E, R43L, D76Q, V82I
# B14: ACTN31: activin A variant peptide, SEQ ID 32 (protein)
# chain: B8 chain with L10T, D16L, R39H, R43K, V82I
# Tested on: H1 or H9 human embryonic stem cells
# Experiment: Activin A bioassay: differentiation of human embryonic stem cells to definitive endoderm, cell number and SOX17 intensity by high content analysis (96-well, four days);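 for Sox 17 Intensity average: total fluorescence of the cell multiplied by cell area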
# Type: cell-based
# Details: supernatant concentration 1x, assay dilution 1:20
# Excerpt: Activin A is an important mediator of differentiation in a broad range of cell types. […] A bioassay that measures this differentiation in human embryonic stem cells was adapted in miniaturized format to 96-well plates for screening purposes. Validation was completed using treatment with commercial sources of activin A and Wnt3a recombinant proteins and measuring protein expression of the transcription factor SOX17, which is considered a representative marker of definitive endoderm.
# Live Cell Assay: Briefly, clusters of H1 or H9 human embryonic stem cells were grown on growth factor-reduced MATRIGEL™ (Invitrogen; Cat #356231)-coated tissue culture plastic. Cells were passaged using collagenase (Invitrogen; Cat # Cat #17104-019) treatment and gentle scraping, washed to remove residual enzyme, and plated in a ratio of 1:1 (surface area) on growth factor-reduced MATRIGEL™-coated 96-well plates (black, 96-well; Packard ViewPlates; Cat #6005182). Cells were allowed to attach as clusters and then recover log phase growth over a 1 to 3 day period, feeding daily with MEF conditioned medium supplemented with 8 ng/ml bFGF (R&D Systems; Cat #233-FB).
# The assay was initiated by washing the wells of each plate twice in PBS and followed by adding an aliquot (100 μl) of test sample in DMEM:F12 basal medium (Invitrogen; Cat #11330-032) to each well. Test conditions were performed in triplicate, feeding […] by aspirating and replacing the medium from each well with test samples over a total four day assay period. On the first and second day of assay, test samples added to the assay wells were diluted in DMEM:F12 with 0.5% FCS (HyClone; Cat #SH30070.03) and 20 ng/ml Wnt3a (R&D Systems; Cat #1324-WN). On the third and fourth day of assay, test samples added to the assay wells were diluted in DMEM:F12 with 2% FCS, without any Wnt3a. Positive control samples consisted of recombinant human activin A (Peprotech; Cat #120-14) added at a concentration of 100 ng/ml throughout assay plus Wnt3a (20 ng/ml) on days 1 and 2. Negative control samples omitted treatment with both activin A and Wnt3a.
# High Content Analysis: At the conclusion of four days of culture, assay plates were washed twice with PBS, fixed with 4% paraformaldehyde at room temperature for 20 minutes, then washed three times with PBS and permeabilized with 0.5% Triton X-100 for 20 minutes at room temperature. Cells were washed again three times with PBS and blocked with 4% chicken serum (Invitrogen; Cat #16110082) in PBS for 30 minutes at room temperature. Primary antibody (goat anti-human SOX17; R&D Systems; cat #AF1924) was diluted 1:100 in 4% chicken serum and added to each well for one hour at room temperature. Alexa Fluor 488 conjugated secondary antibody (chicken anti-goat IgG; Molecular Probes; Cat #) was diluted 1:200 in PBS and added to each sample well after washing three times with PBS. To counterstain nuclei, 4 μg/ml Hoechst 33342 (Invitrogen; Cat #H3570) was added for ten minutes at room temperature. Plates were washed once with PBS and left in 100 μl/well PBS for imaging.
# Imaging was performed using an IN Cell Analyzer 1000 (GE Healthcare) utilizing the 51008bs dichroic for cells stained with Hoechst 33342 and Alexa Fluor 488. Exposure times were optimized from positive control wells and from untreated negative control wells stained with secondary antibody alone. Images from 15 fields per well were acquired to compensate for any cell loss during the bioassay and subsequent staining procedures. Measurements for total cell number and total SOX17 intensity were obtained from each well using IN Cell Developer Toolbox 1.7 (GE Healthcare) software. Segmentation for the nuclei was determined based on grayscale levels (baseline range 100-300) and nuclear size. Averages and standard deviations were calculated for each replicate data set. […]
Molecule,Cell Number average,Sox 17 Intensity average
B1,2873,1.81E+05
B2,3613,9.19E+05
B3,1976,3.37E+05
B4,1548,5.85E+05
B5,1727,1.34E+06
B6,5495,3.63E+05
B7,2958,4.07E+05

# Same assay, conditions: supernatant concentration 1x, assay dilution 1:20; control = R&D Sys Activin A 100 ng/ml on same plate
row,Molecule,Sox 17 Intensity % of control [%]
1,B1,0.8
2,B2,4.0
3,B3,1.5
4,B4,2.6
5,B5,5.9
6,B6,1.6
7,B7,1.8

# Same assay, conditions: supernatant concentration 10x, assay dilution 1:20
Molecule,Cell Number average,Sox 17 Intensity average
B1,3867,3.91E+05
B2,4732,1.43E+06
B3,2272,2.65E+05
B4,3258,7.89E+05
B5,2819,4.13E+05
B6,5558,5.77E+05
B7,7704,3.83E+05

# Same assay, conditions: supernatant concentration 10x, assay dilution 1:20; assay plates #007, #009, #010
Molecule,Cell Number average,Sox 17 Intensity average
B8,3261,2.91E+06
B9,7357,6.73E+05
B10,8943,5.13E+07
B11,4250,5.92E+05
B12,3588,2.15E+06
B13,5043,3.55E+06
B14,10450,5.44E+07

# Same assay, conditions: supernatant concentration 10x, assay dilution 1:20; control = R&D Sys Activin A 100 ng/ml on same plate
row,Molecule,Sox 17 Intensity % of control [%]
1,B1,1.7
2,B2,6.2
3,B3,1.2
4,B4,3.4
5,B5,1.8
6,B6,2.5
7,B7,1.7
8,B8,13.2
9,B9,3.0
10,B10,232.0
11,B11,2.7
12,B12,9.7
13,B13,16.1
14,B14,246.3

# Same assay, conditions: supernatant concentration 10x, assay dilution 1:40
Molecule,Cell Number average,Sox 17 Intensity average
B1,3641,1.24E+06
B2,7608,7.54E+05
B3,5228,8.40E+05
B4,3613,3.99E+05
B5,3042,1.33E+06
B6,4474,7.23E+05
B7,2486,6.19E+04

# Same assay, conditions: supernatant concentration 10x, assay dilution 1:40; control = R&D Sys Activin A 100 ng/ml on same plate
row,Molecule,Sox 17 Intensity % of control [%]
1,B1,5.4
2,B2,3.3
3,B3,3.7
4,B4,1.7
5,B5,5.8
6,B6,3.2
7,B7,0.3

# Same assay, conditions: supernatant concentration 50x, assay dilution 1:20; assay plates #008, #009
Molecule,Cell Number average,Sox 17 Intensity average
B8,4785,1.04E+07
B9,5013,2.87E+06
B10,8835,1.03E+08
B11,5043,4.78E+06
B12,3383,6.50E+06
B13,4620,1.52E+07
B14,11148,1.49E+08

# Same assay, conditions: supernatant concentration 50x, assay dilution 1:20; control = R&D Sys Activin A 100 ng/ml on same plate
row,Molecule,Sox 17 Intensity % of control [%]
1,B8,18.8
2,B9,5.2
3,B10,186.2
4,B11,8.6
5,B12,11.8
6,B13,27.6
7,B14,269.7
